This test concerns the target MutLα (MLH1-PMS2) (human, UniProt P40692 1-756; P54278 1-862). As to the kind of experiment: co-IP.

MutLα (MLH1-PMS2), sequence (P40692 whole entry, chain 1 of 2): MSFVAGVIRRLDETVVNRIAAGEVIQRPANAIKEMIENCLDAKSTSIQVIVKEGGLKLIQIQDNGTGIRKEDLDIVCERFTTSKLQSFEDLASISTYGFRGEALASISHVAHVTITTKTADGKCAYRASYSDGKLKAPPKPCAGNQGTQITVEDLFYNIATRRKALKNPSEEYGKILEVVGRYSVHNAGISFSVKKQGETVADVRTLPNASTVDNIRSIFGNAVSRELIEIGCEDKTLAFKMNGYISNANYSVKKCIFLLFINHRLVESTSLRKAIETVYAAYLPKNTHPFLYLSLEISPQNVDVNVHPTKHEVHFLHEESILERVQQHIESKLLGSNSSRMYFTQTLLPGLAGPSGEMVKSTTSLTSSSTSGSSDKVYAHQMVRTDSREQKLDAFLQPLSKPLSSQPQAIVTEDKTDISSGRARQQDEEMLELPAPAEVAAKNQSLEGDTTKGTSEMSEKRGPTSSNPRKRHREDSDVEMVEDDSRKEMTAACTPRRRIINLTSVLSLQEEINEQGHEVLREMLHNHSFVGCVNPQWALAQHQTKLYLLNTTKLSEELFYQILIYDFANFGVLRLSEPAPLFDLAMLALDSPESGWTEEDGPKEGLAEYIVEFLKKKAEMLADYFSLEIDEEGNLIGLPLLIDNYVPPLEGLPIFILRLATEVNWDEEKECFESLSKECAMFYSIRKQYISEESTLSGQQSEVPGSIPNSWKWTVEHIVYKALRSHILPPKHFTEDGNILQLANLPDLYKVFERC
MutLα (MLH1-PMS2), sequence (P54278 whole entry, chain 2 of 2): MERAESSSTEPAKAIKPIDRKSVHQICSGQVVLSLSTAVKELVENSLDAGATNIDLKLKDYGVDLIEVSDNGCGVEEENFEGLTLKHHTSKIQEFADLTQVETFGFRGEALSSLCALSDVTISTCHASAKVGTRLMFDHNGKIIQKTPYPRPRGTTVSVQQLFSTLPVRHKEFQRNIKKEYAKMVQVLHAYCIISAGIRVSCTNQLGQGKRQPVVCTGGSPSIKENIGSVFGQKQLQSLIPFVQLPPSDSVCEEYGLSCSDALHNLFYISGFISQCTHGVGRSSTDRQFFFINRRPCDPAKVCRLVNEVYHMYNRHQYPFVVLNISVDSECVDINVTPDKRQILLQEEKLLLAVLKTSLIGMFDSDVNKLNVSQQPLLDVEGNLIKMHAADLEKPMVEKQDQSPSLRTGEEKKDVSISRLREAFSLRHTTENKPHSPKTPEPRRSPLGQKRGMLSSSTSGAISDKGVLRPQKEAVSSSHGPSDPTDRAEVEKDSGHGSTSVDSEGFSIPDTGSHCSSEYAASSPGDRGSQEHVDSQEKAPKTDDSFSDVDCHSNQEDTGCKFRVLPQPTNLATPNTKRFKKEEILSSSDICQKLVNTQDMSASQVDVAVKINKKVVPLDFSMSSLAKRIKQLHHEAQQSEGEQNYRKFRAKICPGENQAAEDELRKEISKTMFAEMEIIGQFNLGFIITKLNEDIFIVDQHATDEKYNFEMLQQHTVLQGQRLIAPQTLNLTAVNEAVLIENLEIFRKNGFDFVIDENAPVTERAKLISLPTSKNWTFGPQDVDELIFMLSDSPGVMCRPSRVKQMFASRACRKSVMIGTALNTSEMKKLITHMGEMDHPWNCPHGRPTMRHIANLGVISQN

B1: Exo1-FF-AA (enzyme, human, UniProt Q9UQ84 1-846, looked up)
chain: MGIQGLLQFIKEASEPIHVRKYKGQVVAVDTYCWLHKGAIACAEKLAKGEPTDRYVGFCMKFVNMLLSHGIKPILVFDGCTLPSKKEVERSRRERRQANLLKGKQLLREGKVSEARECFTRSINITHAMAHKVIKAARSQGVDCLVAPYEADAQLAYLNKAGIVQAIITEDSDLLAFGCKKVILKMDQFGNGLEIDQARLGMCRQLGDVFTEEKFRYMCILSGCDYLSSLRGIGLAKACKVLRLANNPDIVKVIKKIGHYLKMNITVPEDYINGFIRANNTFLYQLVFDPIKRKLIPLNAYEDDVDPETLSYAGQYVDDSIALQIALGNKDINTFEQIDDYNPDTAMPAHSRSHSWDDKTCQKSANVSSIWHRNYSPRPESGTVSDAPQLKENPSTVGVERVISTKGLNLPRKSSIVKRPRSAELSEDDLLSQYSLSFTKKTKKNSSEGNKSLSFSEVFVPDLVNGPTNKKSVSTPPRTRNKFATFLQRKNEESGAVVVPGTRSRAACSSDSTDCVSNKVSIQPLDETAVTDKENNLHESEYGDQEGKRLVDTDVARNSSDDIPNNHIPGDHIPDKATVFTDEESYSFESSKFTRTISPPTLGTLRSCFSWSGGLGDFSRTPSPSPSTALQQFRRKSDSPTSLPENNMSDVSQLKSEESSDDESHPLREEACSSQSQESGEFSLQSSNASKLSQCSSKDSDSEESDCNIKLLDSQSDQTSKLRLSHFSKKDTPLRNKVPGLYKSSSADSLSTTKIKPLGPARASGLSKKPASIQKRKHHNAENKPGLQIKLNELWKNFGFKKDSEKLPPCKKPLSPVRDNIQLTPEAEEDIFNKPECGRVQRAIFQ
With B1, the binding result is recorded as “binds”.

B2: Exo1-ΔC (domain or fragment, human, UniProt Q9UQ84 1-602, looked up)
chain: MGIQGLLQFIKEASEPIHVRKYKGQVVAVDTYCWLHKGAIACAEKLAKGEPTDRYVGFCMKFVNMLLSHGIKPILVFDGCTLPSKKEVERSRRERRQANLLKGKQLLREGKVSEARECFTRSINITHAMAHKVIKAARSQGVDCLVAPYEADAQLAYLNKAGIVQAIITEDSDLLAFGCKKVILKMDQFGNGLEIDQARLGMCRQLGDVFTEEKFRYMCILSGCDYLSSLRGIGLAKACKVLRLANNPDIVKVIKKIGHYLKMNITVPEDYINGFIRANNTFLYQLVFDPIKRKLIPLNAYEDDVDPETLSYAGQYVDDSIALQIALGNKDINTFEQIDDYNPDTAMPAHSRSHSWDDKTCQKSANVSSIWHRNYSPRPESGTVSDAPQLKENPSTVGVERVISTKGLNLPRKSSIVKRPRSAELSEDDLLSQYSLSFTKKTKKNSSEGNKSLSFSEVFVPDLVNGPTNKKSVSTPPRTRNKFATFLQRKNEESGAVVVPGTRSRFFCSSDSTDCVSNKVSIQPLDETAVTDKENNLHESEYGDQEGKRLVDTDVARNSSDDIPNNHIPGDHIPDKATVFTDEESYSFESSKFTRTISPPTL
On to B2, for which the binding result is recorded as “binds”.
